# From paper PMC2517984, “TatBC, TatB, and TatC form structurally autonomous units within the twin arginine protein transport system of Escherichia coli” (Febs Letters, 2007)
# T1: TatC with a hexa-histidine tag on the C-terminus, co-produced with TatB (with or without TatA, TatD, TatE) (Escherichia coli, UniProt P69423 1-258)
# T1 construct: TatC, integral membrane protein of the Escherichia coli Tat system; protomer molecular weight printed as 28.9 kDa; The printed protomer weight of 28.9 kDa fits the whole TatC protein; also called TatCHis; TatCHis of Tat(A)BCHis; source: E. coli strain DADE (MC4100 ΔtatABCDΔtatE), overproduced from pFAT75CH (TatABCHisDE) or pFAT75CHΔA (TatBCHis); digitonin-solubilized membranes; not shown: His6, …
# T1 sequence (looked up): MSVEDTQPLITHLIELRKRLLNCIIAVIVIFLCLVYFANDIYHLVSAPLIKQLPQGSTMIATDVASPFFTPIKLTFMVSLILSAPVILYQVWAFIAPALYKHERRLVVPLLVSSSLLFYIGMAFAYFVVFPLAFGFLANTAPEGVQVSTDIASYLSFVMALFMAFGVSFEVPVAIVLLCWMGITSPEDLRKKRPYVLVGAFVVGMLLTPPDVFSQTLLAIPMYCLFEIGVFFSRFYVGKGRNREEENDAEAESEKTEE
# Assays:
# [1] = biological target: T1, TatC with a hexa-histidine tag on the …; experiment: co-purification by Ni(II) affinity chromatography + SEC; TatCHis-containing complexes from digitonin-solubilized membranes of strain DADE producing TatABCHisDE; Ni(II) HiTrap column, then Superose 6 in 20 mM MOPS-HCl pH 7.2, 200 mM NaCl, 0.1% digitonin; peak fraction on SDS-PAGE, Coomassie; conditions: partners not purified
# [2] = biological target: the molecule itself; experiment: native gel or EMSA; BN-PAGE (5-18% gradient) of digitonin-solubilized whole membranes of strain DADE overproducing TatBHis, TatABCHisDE or TatBCHis; immunoblot with anti-TatB or anti-His tag
# [3] = biological target: the molecule itself; experiment: native gel or EMSA; BN-PAGE (4-16% gradient) of TatCHis variants purified in digitonin from the Tat wild-type strain C43(DE3); Coomassie stained
binder,measurement,setting,value
"TatB, untagged, co-produced with TatCHis (natural protein, Escherichia coli, UniProt P69425 1-171, looked up, TatB, integral membrane protein of the Escherichia coli Tat system; protomer molecular weight printed as 18.4 kDa; source: E. coli strain DADE (MC4100 ΔtatABCDΔtatE), overproduced from pFAT75CH or pFAT75CHΔA; digitonin-solubilized membranes) MFDIGFSELLLVFIIGLVVLGPQRLPVAVKTVAGWIRALRSLATTVQNELTQELKLQEFQDSLKKVEKASLTNLTPELKASMDELRQAAESMKRSYVANDPEKASDEAHTIHNPVVKDNEAAHEGVTPAAAQTQASSPEQKPETTPEPVVKPAADAEPKTAAPSPSSSDKP",binding result,[1],binds
"TatB with a C-terminal hexa-histidine tag (natural protein, Escherichia coli, UniProt P69425 1-171, looked up, TatB, integral membrane protein of the Escherichia coli Tat system; protomer molecular weight printed as 18.4 kDa; Produced in the absence of any other Tat components; detected with anti-TatB serum; also called TatBHis; source: E. coli strain DADE (MC4100 ΔtatABCDΔtatE), overproduced from pFAT586; digitonin-solubilized membranes) MFDIGFSELLLVFIIGLVVLGPQRLPVAVKTVAGWIRALRSLATTVQNELTQELKLQEFQDSLKKVEKASLTNLTPELKASMDELRQAAESMKRSYVANDPEKASDEAHTIHNPVVKDNEAAHEGVTPAAAQTQASSPEQKPETTPEPVVKPAADAEPKTAAPSPSSSDKP",stoichiometry N,[2],≤ 4
"TatC with a hexa-histidine tag on the C-terminus, produced alone from pFAT588 (natural protein, Escherichia coli (strain MC4100), UniProt P69423 1-258, looked up, TatC, Escherichia coli; tatC gene amplified from chromosomal DNA of strain MC4100, cloned NcoI/BglII into pQE60; protomer molecular weight printed as 28.9 kDa; also called TatCHis; source: E. coli strain C43(DE3) or its ΔtatABC derivative C43ΔTat(DE3), overproduced from pFAT588; digitonin-solubilized membranes; not shown: His6, C-terminal, kept) MVSVEDTQPLITHLIELRKRLLNCIIAVIVIFLCLVYFANDIYHLVSAPLIKQLPQGSTMIATDVASPFFTPIKLTFMVSLILSAPVILYQVWAFIAPALYKHERRLVVPLLVSSSLLFYIGMAFAYFVVFPLAFGFLANTAPEGVQVSTDIASYLSFVMALFMAFGVSFEVPVAIVLLCWMGITSPEDLRKKRPYVLVGAFVVGMLLTPPDVFSQTLLAIPMYCLFEIGVFFSRFYVGKGRNREEENDAEAESEKTEE",stoichiometry N,[3],≤ 7
